This is an account of results in the RNAGym collection of RNA variant scans (doi:10.1093/molbev/msab373).

The chains are these.
B1: Azoarcus group I ribozyme (parent)
chain: GUGCCUUGCGCCGGGAAACCACGCAAGGGAUGGUGUCAAAUUCGGCGAAACCUAAGCGCCCGCCCGGGCGUAUGGCAACGCCGAGCCAAGCUUCGGCGCCUGCGCCGAUGAAGGUGUAGAGACUAGACGGCACCCACCUAAGGCAAACGCUAUGGUGAAGGCAUAGUCCAGGGAGUGGCGAAAGUCACACAAACCGG

Variants of B1 are the subject of the data set. The data set is described as follows: reverse-splicing fitness (ratio to wild type); higher = more active; in vitro selection; Mg2+ level not given. A digest of the protocol:
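An in vitro group I ribozyme library with randomized positions was T7-transcribed and gel-purified. In triplicate, 10 pmol RNA in EPPS pH 7.5 was reacted with 50 pmoles of a 30-nt RNA substrate for 1 h at 37 °C across several added MgCl2 levels (1–48 mM), then stopped with EDTA. Products were reverse transcribed from a substrate-complementary primer, PCR-amplified and sequenced (HiSeq 4000). Fitness is a variant's read proportion after selection over that before, normalised to wild type.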
Regarding C82U A111G A145C C150G C169U U176C, the reverse-splicing fitness was 0.00873.
As for C82U A111G A145C C150G C169U U176G, the figure is 0.00478; as for C82U A111G A145C C150G C169U U176A, 0.00744.
Regarding C82U A111G A120U A145C C150G U176G, the reverse-splicing fitness was 0.00159.
The result for C82U A111G A120U A145C C150G U176A reads 0.0026; that for C82U A111G A120U A145C C150G U176C, 0.00405.
The result for C82U A111G A145C C150G C169A U176G reads 0.00511.
The result for C82U A111G A145C C150G C169A U176A reads 0.00801.
With C82U A111G A145C C150G C169A U176C, the reverse-splicing fitness is 0.00614.
As for C82U A111G A120U A145C C150U C169G U176A, the figure is 0.00322; as for C82U A111G A120U A145C C150U C169G U176G, 0.00171; as for C82U A111G A120U A145C C150U C169G U176C, 0.00203.
As for C82U A111G A120U A145U C150A C169G U176C, the figure is 0.00253.
The result for C82U A111G A120U A145U C150A C169G U176A reads 0.00245; that for C82U A111G A120U A145U C150A C169G U176G, 0.00148.
In the case of C82U A111G A120U A145G C169U U176G, the reverse-splicing fitness was determined as 0.00171.
The result for C82U A111G A120U A145G C169U U176C reads 0.00362.
For C82U A111G A120U A145G C169U U176A, the reverse-splicing fitness worked out at 0.00337.
The result for C82U A111G A145C C150G C169G U176A reads 0.00777; that for C82U A111G A145C C150G C169G U176G, 0.0047; that for C82U A111G A145C C150G C169G U176C, 0.00634.
As for C82U A111G A120U A145C C150G C169A U176C, the figure is 0.00258; as for C82U A111G A120U A145C C150G C169A U176A, 0.00187.
As to C82U A111G A120U A145C C150G C169A U176G, the reverse-splicing fitness was 0.00209.
As for C82U A111G A120U A145G C150U C169A U176G, the figure is 0.00217; as for C82U A111G A120U A145G C150U C169A U176A, 0.00487; as for C82U A111G A120U A145G C150U C169A U176C, 0.00369.
The result for C82U A111G A120U A145U U176C reads 0.0196; that for C82U A111G A120U A145U U176A, 0.00945; that for C82U A111G A120U A145U U176G, 0.004.
Take C82U A111G A120G C150G C169G U176C: the reverse-splicing fitness turned out to be 0.00458.
On to C82U A111G A120G C150G C169G U176G, for which the reverse-splicing fitness worked out at 0.00428.
The result for C82U A111G A120G C150G C169G U176A reads 0.00604; that for C82U A111G A120U C150A C169G, 0.00358.
For C82U A111G A120U C150A C169A, the reverse-splicing fitness is 0.00324.
As for C82U A111G A120U C150A C169U, the figure is 0.00325; as for C82U A111G A145C C150A C169U U176A, 0.0133.
The result for C82U A111G A145C C150A C169U U176C reads 0.00672.
The result for C82U A111G A145C C150A C169U U176G reads 0.00504; that for C82U A111G A120U A145G C150G C169U, 0.00654.
As to C82U A111G A120U A145G C150G C169G, the reverse-splicing fitness was determined as 0.00671.
As for C82U A111G A120U A145G C150G C169A, the figure is 0.00768; as for C82U A111G A145C C150G C169A, 0.00744.
Take C82U A111G A145C C150G C169G: the reverse-splicing fitness amounted to 0.00679.
With C82U A111G A145C C150G C169U, the reverse-splicing fitness was 0.00804.
As for C82U A111G A120U A145G C150U U176A, the figure is 0.00999; as for C82U A111G A120U A145G C150U U176C, 0.0134.
As for C82U A111G A120U A145G C150U U176G, the figure is 0.00327; as for C82U A111G A120U A145U C169U U176A, 0.00252; as for C82U A111G A120U A145U C169U U176G, 0.0016.
Regarding C82U A111G A120U A145U C169U U176C, the reverse-splicing fitness was found to be 0.00254.
On to C82U A111G A120U A145C C150G C169U U176A, for which the reverse-splicing fitness is 0.00227.
As for C82U A111G A120U A145C C150G C169U U176C, the figure is 0.00213; as for C82U A111G A120U A145C C150G C169U U176G, 0.00181.
The result for C82U A111G A120U A145G C150G C169U U176G reads 0.00292; that for C82U A111G A120U A145G C150G C169U U176C, 0.00581; that for C82U A111G A120U A145G C150G C169U U176A, 0.00458.
Take C82U A111G A120U C150G U176G: the reverse-splicing fitness came to 0.00216.
For C82U A111G A120U C150G U176A, the reverse-splicing fitness was 0.00422.
As for C82U A111G A120U C150G U176C, the figure is 0.0053.
The result for C82U A111G A120U A145C C150G C169U reads 0.00264; that for C82U A111G A120U A145C C150G C169G, 0.00252.
For the variant C82U A111G A120U A145C C150G C169A, the reverse-splicing fitness amounted to 0.00238.
C82U A111G A145C C150A: the reverse-splicing fitness came out at 0.019.
In the case of C82U A111G A145C C150G, the reverse-splicing fitness was 0.0393.
For the variant C82U A111G A145C C150U, the reverse-splicing fitness was 0.091.
As for C82U A111G A120U A145U C150G C169A U176A, the figure is 0.00259; as for C82U A111G A120U A145U C150G C169A U176G, 0.00207; as for C82U A111G A120U A145U C150G C169A U176C, 0.00216.
Consider C82U A111G A120U A145G C169G U176C, for which the reverse-splicing fitness came out at 0.00294.
As for C82U A111G A120U A145G C169G U176A, the figure is 0.00278; as for C82U A111G A120U A145G C169G U176G, 0.00169; as for C82U A111G A120G C150U C169U U176A, 0.0221.
As for C82U A111G A120G C150U C169U U176G, the figure is 0.00611; as for C82U A111G A120G C150U C169U U176C, 0.015.
The result for C82U A111G A120G C169A reads 0.0106; that for C82U A111G A120G C169G, 0.0125; that for C82U A111G A120G C169U, 0.0109.
C82U A111G A120U A145C C150A U176A: the reverse-splicing fitness is 0.00269.
Take C82U A111G A120U A145C C150A U176G: the reverse-splicing fitness was 0.002.
As for C82U A111G A120U A145C C150A U176C, the figure is 0.00275.
As for C82U A111G A120U A145C C150U C169U U176G, the figure is 0.00188.
As for C82U A111G A120U A145C C150U C169U U176A, the figure is 0.00264; as for C82U A111G A120U A145C C150U C169U U176C, 0.00222.
